Substrate in this data set: N[C@@H](CCC(=O)N[C@@H](CS)C(=O)NCC(=O)O)C(=O)O
Description: purified protein. Conditions: G-site.

From publication PMC10136361, “Inhibition Analysis and High-Resolution Crystal Structure of Mus musculus Glutathione Transferase P1-1” (Biomolecules, 2023) come the findings set out here.

B1: MmGSTP1-1 (Mus musculus) (protein)
chain: PPYTIVYFPVRGRCEAMRMLLADQGQSWKEEVVTIDTWMQGLLKPTCLYGQLPKFEDGDLTLYQSNAILRHLGRSLGLYGKNQREAAQMDMVNDGVEDLRGKYVTLIYTNYENGKNDYVKALPGHLKPFETLLSQNQGGKAFIVGDQISFADYNLLDLLLIHQVLAPGCLDNFPLLSAYVARLSARPKIKAFLSSPEHVNRPINGNGKQ
As usually defined, the Km is the substrate concentration at which the rate is half of its maximum. Regarding B1, the Km is listed as 0.22 ± 0.01 mM.
